Test results from publication PMC4260256, “A novel serine hydroxymethyltransferase from Arthrobacter nicotianae: characterization and improving catalytic efficiency by rational design” (BMC Biotechnology, 2014).

Tested on: NC(C(=O)O)C(O)c1ccccc1
Assay: purified protein
Conditions: pH 7.8; 40.0 °C

## AnSHMT (Glutamicibacter nicotianae; I249L)
  Km: 61.95 ± 0.13 mM
  kcat/Km: 76.8 M⁻¹ s⁻¹
